From US20220033784A1 (priority 2020, published 2022)

T1: hIL2Rα (CD25) (Homo sapiens, UniProt P01589)
T1 construct: Purified soluble ligands were covalently coupled onto a CM5 sensor chip
T1 sequence (P01589 22-240 limits assumed): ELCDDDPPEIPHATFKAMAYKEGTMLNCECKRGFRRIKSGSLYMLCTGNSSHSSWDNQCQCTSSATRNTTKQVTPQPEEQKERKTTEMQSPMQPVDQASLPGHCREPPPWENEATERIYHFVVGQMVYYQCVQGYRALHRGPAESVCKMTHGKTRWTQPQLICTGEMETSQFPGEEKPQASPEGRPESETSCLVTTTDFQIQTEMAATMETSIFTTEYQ

T2: hILR2β (CD122) (Homo sapiens, UniProt P14784)
T2 sequence (P14784 27-240 limits assumed): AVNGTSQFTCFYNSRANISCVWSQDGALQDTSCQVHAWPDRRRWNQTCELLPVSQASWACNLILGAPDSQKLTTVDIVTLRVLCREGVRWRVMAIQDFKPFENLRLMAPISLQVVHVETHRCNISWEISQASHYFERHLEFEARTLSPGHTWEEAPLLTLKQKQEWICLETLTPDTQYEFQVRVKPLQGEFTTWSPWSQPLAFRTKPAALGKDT

B1: Fc-IL2-R38N:L40T-K43N:Y45T (protein)
chain: APTSSSTKKTQLQLEHLLLDLQMILNGINNYKNPKLTNMTTFNFTMPKKATELKHLQCLEEELKPLEEVLNLAQSKNFHLRPRDLISNINVIVLELKGSETTFMCEYADETATIVEFLNRWITFCQSIISTLT
B2: Fc-IL2-K43N:Y45T-L72N:Q74T (protein)
chain: APTSSSTKKTQLQLEHLLLDLQMILNGINNYKNPKLTRMLTFNFTMPKKATELKHLQCLEEELKPLEEVLNNATSKNFHLRPRDLISNINVIVLELKGSETTFMCEYADETATIVEFLNRWITFCQSIISTLT

Experiments:
CD8 T cells = assay: In vivo expansion of CD8 T cells (spleen immunophenotyping); set-up: species or system mice; conditions: 0.5, 1, or 2 mg/kg daily for 4 days SC; spleens day 3
Procedure: (§1) Mice were randomized into groups to receive one of the molecules listed above or PBS control. The treatment groups were as follows: PBS; Fc-IL2; Fc-IL2v; […]; Immunophenotyping was conducted on day 3 after the first treatment (day 0) by collecting spleens from each group.

hIL2Rα (CD25) = biological target: T1, hIL2Rα (CD25); assay: Biacore 8K surface plasmon resonance, hIL2Rα (CD25); assay type: binding; conditions: SPR, Table B
Procedure: (§2) All experiments were performed on a Biacore 8K Surface Plasmon Resonance based biosensor (GE Healthcare). Purified soluble ligands were covalently coupled onto a CM5 sensor chip using an Amine Coupling Kit (GE Healthcare, Product #BR100050) following the manufacturer's recommendations. HBS-EP+ running buffer (10 mM HEPES pH 7.4, 0.15 M NaCl, 3 mM EDTA, 0.005% P-20), ranging in concentration was injected on all flow cells for 7 minutes at 20 μL/min. CD25 and CD122 was captured to surface densities of ˜20 and ˜500 RU, respectively. A non-derivatized flow cell was used as a reference surface. All flow cells were blocked with 100 mM ethylenediamine in 200 mM borate buffer pH 8.5 for 7 minutes at 10 μL/min.
Protein interaction experiments were performed using HBS-EP+(pH 7.4) at 25° C. on each spot. Following capture of antigens, analyte (1.23, 3.7, 11.1, 33.3, 100, 300, and 900 nM concentrations of IL-2 variants) was injected at a flow rate of 50 μL/min in all flow cells for 50 seconds. After each analyte injection, dissociation was monitored for 5 minutes, followed by regeneration of all flow cells with a 20 second injection of 10 mM glycine (pH 2.1). Buffer cycles were collected for each sample for double-referencing purposes (double-referencing as described in Myszka, D. G., Improving biosensor analysis. J. Mol. Recognit. 12, 279-284 (1999)). […]

NK cells = assay: In vivo expansion of NK cells (spleen immunophenotyping); set-up: species or system mice; conditions: 0.5, 1, or 2 mg/kg daily for 4 days SC; spleens day 3
Procedure: as §1

hILR2β (CD122) = biological target: T2, hILR2β (CD122); assay: Biacore 8K surface plasmon resonance, hILR2β (CD122); assay type: binding; conditions: SPR; for Kd / hILR2β (CD122) kinetics ka / hILR2β (CD122) kinetics kd: HBS-EP+ pH 7.4, 25° C.; for binding affinity to human IL-2Rβ compared with the wild-type IL-2 Fc fusion: Table B
Procedure: as §2
Protein interaction experiments were performed using HBS-EP+(pH 7.4) at 25° C. on each spot. Following capture of antigens, analyte (1.23, 3.7, 11.1, 33.3, 100, 300, and 900 nM concentrations of IL-2 variants) was injected at a flow rate of 50 μL/min in all flow cells for 50 seconds. After each analyte injection, dissociation was monitored for 5 minutes, followed by regeneration of all flow cells with a 20 second injection of 10 mM glycine (pH 2.1). Buffer cycles were collected for each sample for double-referencing purposes (double-referencing as described in Myszka, D. G., Improving biosensor analysis. J. Mol. Recognit. 12, 279-284 (1999)). For kinetic analysis, the double-referenced sensorgrams were fit globally to a simple 1:1 Langmuir with mass transport binding model using Biacore 8K Evaluation Software version 1.1.1.7442. For steady-state affinity analysis, the double-referenced equilibrium binding responses were fit with a 1:1 Langmuir steady-state model using Biacore 8K Evaluation Software version 1.1.1.7442.

B16F10 cells = assay: Tolerability and tumor growth inhibition in B16F10-bearing mice (Example 21); assay type: in vivo, mouse (C57/BL6); conditions: for surviving mice: 1 mg/kg SC on days 5, 6, 7, 8, groups of 15, day 12 post first treatment; for tolerability in mice compared with Fc-IL2 and Fc-IL2v: 1 mg/kg SC on days 5-8; for tumor growth inhibition in comparison to PBS control: B16F10 SC, 1 mg/kg SC on days 5-8, surviving mice
Excerpt: On day 0 of the experiment, female C57/BL6 mice were subcutaneously implanted in the upper thigh with approximately 500,000 B16F10 cells, which had been freshly thawed from a single, low-passage vial (of 1*10^7 cells) and cultured for the minimum time required to establish sufficient cells for implantation.
On day 5 of the experiment, mice were randomized into groups to receive one of the molecules listed above or control. […] Tumor volumes, body weight, and animal survival were tracked throughout the course of the experiment. Animals were sacrificed once tumors reached approximately 2000 mm^3 or 2 weeks post treatment.

[1] = test system: iTreg cells (IL-2 CD25/CD122/CD132 (α/β/γ) receptor complex); assay: pSTAT5 ELISA in iTreg cells; assay type: cell-based; conditions: pSTAT5 level 50% of maximum, InstantOne ELISA; read-out: EC50 iTreg cell
Procedure: (§3) The ability of the IL-2 variants to activate HH cells and iTregs was measured by monitoring relative changes in phosphorylated STAT5 (pSTAT5) in response to treatment of the cells with the IL-2 variants. pSTAT5 is known to be a downstream consequence of IL-2 signaling. HH T cells (ATCC CRL-2105) are a line of T cells that lack the alpha chain of the IL-2 receptor complex, but that contain the beta and gamma chains of the IL-2 receptor complex. iTreg cells were prepared from Fresh Leuko Paks obtained from […] Technologies (CAT #70500.1, Donor #D001003551).
(§4) For IL-2 activation, the HH cells and iTreg cells were plated at 2*10e6 cells/well in 50 ul serum-free RPMI 1640 media (Gibco), and allowed to rest at 37° C. After resting, cells were treated the IL-2 molecules listed above, and cells were then pelleted by centrifugation.
(§5) Following treatment with the IL-2 molecules, cell induction status was evaluated by the InstantOne ELISA pSTAT5 detection kit (Invitrogen).

Treg cells = assay: In vivo expansion of Treg cells (spleen immunophenotyping); set-up: species or system mice; conditions: 0.5, 1, or 2 mg/kg daily for 4 days SC; spleens day 3
Procedure: as §1

[2] = test system: HH cells (IL-2 CD122/CD132 (β/γ) receptor complex); assay: pSTAT5 ELISA in HH cells; assay type: cell-based; conditions: for relative selectivity for HH cells vs iTreg cells among the tested molecules: Table C; for Selectivity HH/iTreg: higher value = greater selectivity for HH cells; for EC50: pSTAT5 level 50% of maximum, InstantOne ELISA, read-out: EC50 HH T cell
Procedure: as §3, §4, §5

| Molecule | expansion of CD8 T cells in vivo (CD8 T cells) | binding to IL-2Rα (hIL2Rα (CD25)) | expansion of NK cells in vivo (NK cells) | Kd (hILR2β (CD122)) | hILR2β (CD122) kinetics ka (hILR2β (CD122)) | hILR2β (CD122) kinetics kd (hILR2β (CD122)) | binding affinity to human IL-2Rβ compared with the wild-type IL-2 Fc fusion (hILR2β (CD122)) | surviving mice (B16F10 cells) | tolerability in mice compared with Fc-IL2 and Fc-IL2v (B16F10 cells) | tumor growth inhibition in comparison to PBS control (B16F10 cells) | EC50 [1] | proliferation of Treg cells in vivo (Treg cells) | relative selectivity for HH cells vs iTreg cells among the tested molecules [2] | Selectivity HH/iTreg [2] | EC50 [2] |
| --- | --- | --- | --- | --- | --- | --- | --- | --- | --- | --- | --- | --- | --- | --- | --- |
| B1 | promoted the expansion | do not have measurable binding to IL-2Rα | promoted the expansion | 3540 nM | 82600 M⁻¹ s⁻¹ | 0.292 s⁻¹ | retain similar binding affinity | 11/15 | better tolerated | significant tumor growth inhibition | 14.1 nM | minimal effects on the proliferation of Treg cells | greatest relative selectivity | 6.47 × 10^−2 | 218 nM |
| B2 | promoted the expansion | do not have measurable binding to IL-2Rα | promoted the expansion | 2620 nM | 89900 M⁻¹ s⁻¹ | 0.235 s⁻¹ | retain similar binding affinity | 14/15 | better tolerated | significant tumor growth inhibition | 4.49 nM | minimal effects on the proliferation of Treg cells | greatest relative selectivity | 6.89 × 10^−2 | 65.2 nM |
